According to article PMC5080355, “Interaction of the Nitrogen Regulatory Protein GlnB (PII) with Biotin Carboxyl Carrier Protein (BCCP) Controls Acetyl-CoA Levels in the Cyanobacterium Synechocystis sp. PCC 6803” (Frontiers in Microbiology, 2016):

Target: E. coli biotin carboxyl carrier protein (His-BCCP), subunit of acetyl-CoA carboxylase (E. coli) (UniProt P0ABD8)

Chain of GlnB (PII) from Synechococcus elongatus PCC7942, wild type (P0A3F4 whole entry): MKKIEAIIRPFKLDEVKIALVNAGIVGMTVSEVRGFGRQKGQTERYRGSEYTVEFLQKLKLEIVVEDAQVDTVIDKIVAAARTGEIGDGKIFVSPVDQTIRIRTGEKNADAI

- EC50 of inhibition of reconstituted E. coli ACC activity by increasing GlnB (coupled PK/LDH assay, 10 mM ATP): 310 nM
- maximum inhibition of reconstituted E. coli ACC activity (coupled PK/LDH assay, 10 mM ATP): 93%
Substance: GlnB (PII) from Synechococcus elongatus PCC7942, wild type (from UniProt P0A3F4 1-112) (natural protein)
